IntAct's records for PubMed 23929946

B1: Protein BRASSINOSTEROID … 1 (Arabidopsis thaliana (Mouse-ear cress)), O22476 (parent)
chain: MKTFSSFFLSVTTLFFFSFFSLSFQASPSQSLYREIHQLISFKDVLPDKNLLPDWSSNKNPCTFDGVTCRDDKVTSIDLSSKPLNVGFSAVSSSLLSLTGLESLFLSNSHINGSVSGFKCSASLTSLDLSRNSLSGPVTTLTSLGSCSGLKFLNVSSNTLDFPGKVSGGLKLNSLEVLDLSANSISGANVVGWVLSDGCGELKHLAISGNKISGDVDVSRCVNLEFLDVSSNNFSTGIPFLGDCSALQHLDISGNKLSGDFSRAISTCTELKLLNISSNQFVGPIPPLPLKSLQYLSLAENKFTGEIPDFLSGACDTLTGLDLSGNHFYGAVPPFFGSCSLLESLALSSNNFSGELPMDTLLKMRGLKVLDLSFNEFSGELPESLTNLSASLLTLDLSSNNFSGPILPNLCQNPKNTLQELYLQNNGFTGKIPPTLSNCSELVSLHLSFNYLSGTIPSSLGSLSKLRDLKLWLNMLEGEIPQELMYVKTLETLILDFNDLTGEIPSGLSNCTNLNWISLSNNRLTGEIPKWIGRLENLAILKLSNNSFSGNIPAELGDCRSLIWLDLNTNLFNGTIPAAMFKQSGKIAANFIAGKRYVYIKNDGMKKECHGAGNLLEFQGIRSEQLNRLSTRNPCNITSRVYGGHTSPTFDNNGSMMFLDMSYNMLSGYIPKEIGSMPYLFILNLGHNDISGSIPDEVGDLRGLNILDLSSNKLDGRIPQAMSALTMLTEIDLSNNNLSGPIPEMGQFETFPPAKFLNNPGLCGYPLPRCDPSNADGYAHHQRSHGRRPASLAGSVAMGLLFSFVCIFGLILVGREMRKRRRKKEAELEMYAEGHGNSGDRTANNTNWKLTGVKEALSINLAAFEKPLRKLTFADLLQATNGFHNDSLIGSGGFGDVYKAILKDGSAVAIKKLIHVSGQGDREFMAEMETIGKIKHRNLVPLLGYCKVGDERLLVYEFMKYGSLEDVLHDPKKAGVKLNWSTRRKIAIGSARGLAFLHHNCSPHIIHRDMKSSNVLLDENLEARVSDFGMARLMSAMDTHLSVSTLAGTPGYVPPEYYQSFRCSTKGDVYSYGVVLLELLTGKRPTDSPDFGDNNLVGWVKQHAKLRISDVFDPELMKEDPALEIELLQHLKVAVACLDDRAWRRPTMVQVMAMFKEIQAGSGIDSQSTIRSIEDGGFSTIEMVDMSIKEVPEGKL
partner: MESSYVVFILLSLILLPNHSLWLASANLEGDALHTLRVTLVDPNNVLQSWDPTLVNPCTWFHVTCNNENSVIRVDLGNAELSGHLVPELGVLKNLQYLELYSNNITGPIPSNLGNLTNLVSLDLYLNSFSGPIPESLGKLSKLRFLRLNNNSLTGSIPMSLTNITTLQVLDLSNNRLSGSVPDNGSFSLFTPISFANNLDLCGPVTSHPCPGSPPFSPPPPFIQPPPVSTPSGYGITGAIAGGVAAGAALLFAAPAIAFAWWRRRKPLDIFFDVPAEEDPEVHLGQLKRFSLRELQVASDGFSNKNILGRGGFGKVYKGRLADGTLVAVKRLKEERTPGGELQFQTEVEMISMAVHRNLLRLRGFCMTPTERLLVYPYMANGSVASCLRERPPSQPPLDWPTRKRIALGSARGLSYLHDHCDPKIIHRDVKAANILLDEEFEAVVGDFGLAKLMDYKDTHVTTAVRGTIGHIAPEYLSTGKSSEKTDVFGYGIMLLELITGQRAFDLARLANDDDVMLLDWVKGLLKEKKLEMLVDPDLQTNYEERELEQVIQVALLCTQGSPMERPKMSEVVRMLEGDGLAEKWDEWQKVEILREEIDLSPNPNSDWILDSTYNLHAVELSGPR

Variants of: B1
Details: with serk1_arath SERK1, Q94AG2

Row | effect of a mutation on the interaction | Variant
1 | disrupting interaction strength | T750I
